Measurements: paper PMC3388087 (PLoS ONE, 2012)

Key:
[1] = biological target: bat star (Patiria miniata) DGCR8 heme-binding domain, HBD-His6 (Patiria miniata (bat star)); test: SEC; size exclusion chromatography, last step of the purification; SEC buffer 400 mM NaCl, 20 mM Tris pH 8.0, 1 mM DTT; elution volumes compared (bat star HBD 13.8 mL; human HBD dimer; human NC9 monomer 2.6 mL later)
[2] = biological target: the molecule itself; test: as above

| Molecule | stoichiometry N [1] | stoichiometry N [2] |
| --- | --- | --- |
| bat star (Patiria miniata) DGCR8 heme-binding domain, HBD-His6 (domain or fragment) | 2 | – |
| human DGCR8 heme-binding domain, HBD-His6 (domain or fragment, UniProt Q8WYQ5 276-498, looked up, Dimer of 54 kDa; also called human HBD; human HBD-His6; not shown: His6, C-terminal, kept) DGETSVQPMMTKIKTVLKSRGRPPTEPLPDGWIMTFHNSGVPVYLHRESRVVTWSRPYFLGTGSIRKHDPPLSSIPCLHYKKMKDNEEREQSSDLTPSGDVSPVKPLSRSAELEFPLDEPDSMGADPGPPDEKDPLGAEAAPGALGQVKAKVEVCKDESVDLEEFRSYLEKRFDFEQVTVKKFRTWAERRQFNREMKRKQAESERPILPANQKLITLSVQDAP | – | 2 |
